Article doi:10.1101/415992

Target: Mps1-1 kinetochores (budding yeast) (UniProt P40568)
Experiment: optical trap force-clamp flow assay

UniProt P40568, sequence (P40568 whole entry, looked up): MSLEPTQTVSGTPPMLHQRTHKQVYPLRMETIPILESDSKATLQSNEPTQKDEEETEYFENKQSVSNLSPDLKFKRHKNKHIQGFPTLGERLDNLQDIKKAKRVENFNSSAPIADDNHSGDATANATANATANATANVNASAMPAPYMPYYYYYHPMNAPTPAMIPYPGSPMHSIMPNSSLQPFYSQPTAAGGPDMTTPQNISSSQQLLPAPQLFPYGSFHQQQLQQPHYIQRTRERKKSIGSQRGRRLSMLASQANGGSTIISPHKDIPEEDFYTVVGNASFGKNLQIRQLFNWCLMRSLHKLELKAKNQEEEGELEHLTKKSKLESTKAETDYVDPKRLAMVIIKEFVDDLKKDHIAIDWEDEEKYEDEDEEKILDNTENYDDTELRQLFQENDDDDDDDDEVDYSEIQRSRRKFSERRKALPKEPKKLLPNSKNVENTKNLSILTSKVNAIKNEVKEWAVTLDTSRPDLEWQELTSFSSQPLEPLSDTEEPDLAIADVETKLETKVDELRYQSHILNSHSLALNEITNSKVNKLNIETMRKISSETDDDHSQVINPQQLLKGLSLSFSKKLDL

detachment rate (with 0.5 μM AurB*, 1.5 pN): 28.9 hr^-1 | detachment rate (with 0.5 μM AurB*, 5 pN): 7 hr^-1 | detachment rate (with 0.5 μM AurB*, ~1 pN): 4.6 hr^-1 | detachment rate (with 0.5 μM AurB*-KD, 1.5 pN): 10.4 hr^-1 | detachment rate (with 0.5 μM AurB*-KD, 5 pN): 7 hr^-1 | detachment rate (with 5 μM AurB*, ~1 pN): 7.2 hr^-1
Substance: dynamic microtubules (assembling and shortening tips of single, coverslip-anchored microtubules) (from UniProt Q6B856 1-445) (complex)
